Values quoted from earlier work, collected in article PMC2846785.

Tested on: Cys

Arylamine N-acetyltransferase 2 (hamster NAT2) (Mesocricetus auratus (Syrian hamster))
pKa: 5.23 ± 0.03
